Data set [1] concerns the target T1, cytosolic phospholipase A2, P50393.
T1 chain: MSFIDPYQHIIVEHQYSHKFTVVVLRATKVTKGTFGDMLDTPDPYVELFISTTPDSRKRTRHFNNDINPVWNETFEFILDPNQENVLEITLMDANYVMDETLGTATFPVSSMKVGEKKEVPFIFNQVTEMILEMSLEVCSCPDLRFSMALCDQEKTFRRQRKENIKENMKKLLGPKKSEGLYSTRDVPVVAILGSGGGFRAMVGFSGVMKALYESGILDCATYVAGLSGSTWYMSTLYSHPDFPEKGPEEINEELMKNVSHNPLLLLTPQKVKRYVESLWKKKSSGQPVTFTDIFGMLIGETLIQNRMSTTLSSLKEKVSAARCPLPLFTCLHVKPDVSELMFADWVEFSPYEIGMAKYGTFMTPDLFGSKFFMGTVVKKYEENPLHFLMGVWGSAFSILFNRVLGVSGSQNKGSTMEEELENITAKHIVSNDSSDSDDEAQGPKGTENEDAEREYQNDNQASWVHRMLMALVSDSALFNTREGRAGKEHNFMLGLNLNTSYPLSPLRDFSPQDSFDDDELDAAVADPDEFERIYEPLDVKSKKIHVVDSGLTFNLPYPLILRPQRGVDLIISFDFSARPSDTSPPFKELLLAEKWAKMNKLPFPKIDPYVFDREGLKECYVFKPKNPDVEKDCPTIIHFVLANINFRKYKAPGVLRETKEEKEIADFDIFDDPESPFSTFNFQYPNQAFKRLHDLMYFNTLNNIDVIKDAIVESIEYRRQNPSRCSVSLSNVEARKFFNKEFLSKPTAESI

In a further data set the target is T2, cycloxygenase-2, P35355.
T2 chain: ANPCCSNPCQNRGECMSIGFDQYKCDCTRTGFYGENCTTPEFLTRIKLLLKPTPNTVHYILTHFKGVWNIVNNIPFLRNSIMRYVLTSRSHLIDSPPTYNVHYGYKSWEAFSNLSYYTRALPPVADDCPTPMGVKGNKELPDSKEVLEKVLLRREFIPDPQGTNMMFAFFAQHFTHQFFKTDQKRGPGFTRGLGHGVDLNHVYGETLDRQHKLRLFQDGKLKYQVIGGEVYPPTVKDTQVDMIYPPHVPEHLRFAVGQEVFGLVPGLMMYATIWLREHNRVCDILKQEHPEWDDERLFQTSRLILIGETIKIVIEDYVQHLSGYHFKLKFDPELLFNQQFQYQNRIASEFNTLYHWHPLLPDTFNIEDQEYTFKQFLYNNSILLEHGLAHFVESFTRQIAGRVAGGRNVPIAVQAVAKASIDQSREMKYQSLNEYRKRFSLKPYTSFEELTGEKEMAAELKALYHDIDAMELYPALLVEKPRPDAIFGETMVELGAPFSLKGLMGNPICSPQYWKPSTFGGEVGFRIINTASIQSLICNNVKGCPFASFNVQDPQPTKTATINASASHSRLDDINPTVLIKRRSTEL

B1: 5-lipoxygenase (protein)
chain: MPSYTVTVATGSQWFAGTDDYIYLSLIGSAGCSEKHLLDKAFYNDFERGGRDSYDVTVDEELGEIYLVKIEKRKYRLHDDWYLKYITLKTPHDYIEFPCYRWITGEGEIVLRDGCAKLARDDQIHILKQHRRKELETRQKQYRWMEWNPGFPLSIDAKCHKDLPRDIQFDSEKGVDFVLNYSKAMENLFINRFMHMFQSSWHDFADFEKIFVKISNTISERVKNHWQEDLMFGYQFLNGCNPVLIKRCTELPKKLPVTTEMVECSLERQLSLEQEVQEGNIFIVDYELLDGIDANKTDPCTHQFLAAPICLLYKNLANKIVPIAIQLNQTPGEKNPIFLPTDSKYDWLLAKIWVRSSDFHIHQTITHLLRTHLVSEVFGIAMYRQLPAVHPLFKLLVAHVRFTIAINTKAREQLNCEYGLFDKANATGGGGHVQMVQRAVQDLTYSSLCFPEAIKARGMDNTEDIPYYFYRDDGLLVWEAIQSFTTEVVSIYYEDDQVVEEDQELQDFVKDVYVYGMRGRKASGFPKSIKSREKLSEYLTVVIFTASAQHAAVNFGQYDWCSWIPNAPPTMRAPPPTAKGVVTIEQIVDTLPDRGRSCWHLGAVWALSQFQENELFLGMYPEEHFIEKPVKEAMIRFRKNLEAIVSVIAERNKNKKLPYYYLSPDRIPNSVAI
In the case of B1, the LTB4 production in data set [1] is 5-lipoxygenase co-immunoprecipitated with cPLA2 (FIG. 10) and metabolized arachidonic acid, generated by cPLA2, into LTB4. Also, the 15ELXA production result with cycloxygenase-2, P35355 was “it interacted with COX2 in the cytosolic fraction (FIG. 11) to generate 15ELXA (FIG. 9A)”.

Source of the values: patent publication US20090042849.
